Experimental data from patent US20160046707A1 (EISAI R AND D MANAGEMENT, published 2016).

What was measured:
Assay in all cases: ELISA, plate-bound chemokine (1 ug/ml), antibody 10 ug/ml, OD450
recombinant human XCL1 = molecular target: T1, recombinant human XCL1 (human, UniProt P47992 23-114, limits assumed)
T1 construct: also called Ltn
T1 sequence (looked up): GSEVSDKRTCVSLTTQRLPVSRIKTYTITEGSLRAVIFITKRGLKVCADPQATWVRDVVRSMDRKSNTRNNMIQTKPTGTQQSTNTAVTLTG
Experimental: (§1) The wells of a 96-well plate were coated with 1 μg/ml of the recombinant human chemokines in PBS (−). After overnight incubation at 4° C., the wells were blocked with 1× Block-Ace (Dainippon Sumitomo Pharma, UK-B80) for 1 hour at room temperature. After washing twice with 0.02% Tween 20/PBS (−), we added 50 μl of 10 μg/ml purified 36F7C10, chimeric 36F710, HC2/LK3, or HC2/LC3 in 0.02% Tween 20/PBS (−) to each well. The wells were incubated for 1 hour at room temperature and washed three times as described in Example 3. […] After washing five times, a TMBZ (3,3′,5,5′-tetramethylbenzidine) solution (1%, in N,N-Dimethylformamide) was added to the wells and incubated for 15-30 minutes. The reaction was stopped by adding an equal volume of a 2 M H₂SO₄ stopping solution, and the optical density was read at 450 nm by ARVO (PerkinElmer).

recombinant human CCL28 = molecular target: T2, recombinant human CCL28 (human, UniProt Q9NRJ3 23-127, limits assumed)
T2 sequence (looked up): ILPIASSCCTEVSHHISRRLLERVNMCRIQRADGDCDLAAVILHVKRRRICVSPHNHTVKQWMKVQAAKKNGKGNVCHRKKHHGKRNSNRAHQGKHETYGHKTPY
Experimental: as §1

recombinant human CCL25 = molecular target: T3, recombinant human CCL25 (human, UniProt O15444 24-150)
T3 construct: also called TECK
T3 sequence (looked up): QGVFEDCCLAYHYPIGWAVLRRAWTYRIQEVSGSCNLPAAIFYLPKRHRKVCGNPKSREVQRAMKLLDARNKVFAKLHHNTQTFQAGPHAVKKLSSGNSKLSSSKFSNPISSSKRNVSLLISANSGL
Experimental: as §1

recombinant human CCL24 = molecular target: T4, recombinant human CCL24 (human, UniProt O00175 27-119, limits assumed)
T4 construct: also called Eotaxin-2/MPIF-2
T4 sequence (looked up): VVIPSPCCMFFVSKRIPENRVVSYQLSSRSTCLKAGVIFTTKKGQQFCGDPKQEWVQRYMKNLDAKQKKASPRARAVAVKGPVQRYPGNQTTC
Experimental: as §1

recombinant human CCL17 = molecular target: T5, recombinant human CCL17 (human, UniProt Q92583 24-94)
T5 construct: also called TARC
T5 sequence (looked up): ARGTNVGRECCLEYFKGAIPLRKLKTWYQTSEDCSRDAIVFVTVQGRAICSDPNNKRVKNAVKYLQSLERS
Experimental: as §1

recombinant human CCL13 = molecular target: T6, recombinant human CCL13 (human, UniProt Q99616 24-98)
T6 construct: also called MCP-4
T6 sequence (Q99616 24-98 limits assumed): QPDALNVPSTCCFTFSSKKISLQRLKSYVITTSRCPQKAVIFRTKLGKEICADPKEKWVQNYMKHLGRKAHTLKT
Experimental: as §1

recombinant human CCL11 = molecular target: T7, recombinant human CCL11 (human, UniProt P51671 24-97)
T7 construct: also called Eotaxin
T7 sequence (P51671 24-97 limits assumed): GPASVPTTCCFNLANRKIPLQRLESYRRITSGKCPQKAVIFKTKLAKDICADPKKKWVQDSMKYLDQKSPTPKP
Experimental: as §1

recombinant human CCL5 = molecular target: T8, recombinant human CCL5 (human, UniProt P13501 24-91)
T8 construct: also called Rantes
T8 sequence (looked up): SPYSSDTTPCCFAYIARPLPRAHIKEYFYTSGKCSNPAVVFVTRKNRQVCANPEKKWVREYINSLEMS
Experimental: as §1

recombinant human CCL4 = molecular target: T9, recombinant human CCL4 (human, UniProt P13236 24-92)
T9 construct: also called MIP-1β
T9 sequence (looked up): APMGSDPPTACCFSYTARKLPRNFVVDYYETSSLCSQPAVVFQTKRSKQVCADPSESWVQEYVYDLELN
Experimental: as §1

recombinant human CXCL9 = molecular target: T10, recombinant human CXCL9 (human, UniProt Q07325 23-125)
T10 construct: also called MIG
T10 sequence (looked up): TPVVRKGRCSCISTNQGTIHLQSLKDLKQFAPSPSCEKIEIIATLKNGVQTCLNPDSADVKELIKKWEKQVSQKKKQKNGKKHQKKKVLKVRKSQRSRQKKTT
Experimental: as §1

recombinant human CXCL1 = molecular target: T11, recombinant human CXCL1 (human, UniProt P09341 35-107)
T11 construct: also called GROα
T11 sequence (looked up): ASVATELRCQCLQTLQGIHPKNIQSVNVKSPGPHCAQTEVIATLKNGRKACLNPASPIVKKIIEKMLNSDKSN
Experimental: as §1

[1] = molecular target: T12, recombinant human CX3CL1 (Chemokine Domain) (human, UniProt P78423 25-100)
T12 construct: domain: Chemokine Domain; also called FKN
T12 sequence (looked up): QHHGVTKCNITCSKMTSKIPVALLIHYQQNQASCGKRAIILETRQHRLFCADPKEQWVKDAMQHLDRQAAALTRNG
Experimental: as §1

[2] = molecular target: T13, recombinant human CX3CL1 (Extracellular Domain) (human, UniProt P78423 25-341)
T13 construct: extracellular domain; also called FKN
T13 sequence (looked up): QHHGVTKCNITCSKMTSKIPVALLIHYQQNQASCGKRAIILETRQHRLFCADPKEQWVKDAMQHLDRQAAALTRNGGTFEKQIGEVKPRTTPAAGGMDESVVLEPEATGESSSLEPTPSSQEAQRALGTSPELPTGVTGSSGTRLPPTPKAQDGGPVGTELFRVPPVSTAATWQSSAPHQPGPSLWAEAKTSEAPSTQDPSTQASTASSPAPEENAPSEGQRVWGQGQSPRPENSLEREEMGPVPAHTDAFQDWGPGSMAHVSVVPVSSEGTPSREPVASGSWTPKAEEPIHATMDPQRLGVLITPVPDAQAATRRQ
Experimental: as §1

Measured: binding result

B1: mouse anti-human CCL20 monoclonal antibody 36F7C10 (antibody, V domains shown)
VH: QVQLQQPGAELVKPGASVKMSCKASGYTFTNYWMHWVKQRPGQGLEWIGVIDPSDSYTTYNQKFKGKATLTVDTSSSTAYMQLSSLTSEDSAVYYCTRGNYGVDYAMDYWGQGTSVTVSS
VL: DIQMTQSPASLSASVGETVTITCGASENIYGALNWYQRKQGKSPQLLIYGATNLADGMSSRFSGSGSGRQYSLKISSLHPDDVATYYCQNVLITPYTFGGGTKLEIK
notes: Mouse hybridoma antibody; also called MouseMAb; parental mouse clone 36F7C10
no binding (tested: 10 ug/ml): all assays above

B2: chimeric 36F7C10 antibody (36F7C10-hFc) (antibody, V domains shown)
VH: QVQLQQPGAELVKPGASVKMSCKASGYTFTNYWMHWVKQRPGQGLEWIGVIDPSDSYTTYNQKFKGKATLTVDTSSSTAYMQLSSLTSEDSAVYYCTRGNYGVDYAMDYWGQGTSVTVSS
VL: DIQMTQSPASLSASVGETVTITCGASENIYGALNWYQRKQGKSPQLLIYGATNLADGMSSRFSGSGSGRQYSLKISSLHPDDVATYYCQNVLITPYTFGGGTKLEIK
notes: also called chimeric 36F710; Chimeric MAb
no binding (tested: 10 ug/ml): all assays above

B3: humanized anti-human CCL20 antibody 36LK3/36HC2 (antibody, human IgG1, kappa, V domains shown)
VH: QVQLVQSGAEVKKPGASVKVSCKASGYTFTNYWMHWVRQAPGQGLEWMGVIDPSDSYTTYAQKFQGRVTMTVDTSTSTVYMELSSLRSEDTAVYYCARGNYGVDYAMDYWGQGTLVTVSS
VL: DIQMTQSPSSLSASVGDRVTITCGASENIYGALNWYQRKPGKAPKLLIYGATNLADGVPSRFSGSGSGRDYTLTISSLQPEDFATYYCQNVLITPYTFGQGTKLEIKR
notes: expressed in HEK293 cells; also called HC2/LK3; HC2LK3
no binding (tested: 10 ug/ml): all assays above

B4: humanized anti-human CCL20 antibody 36LC3/36HC2 (antibody, human IgG1, kappa, V domains shown)
VH: QVQLVQSGAEVKKPGASVKVSCKASGYTFTNYWMHWVRQAPGQGLEWMGVIDPSDSYTTYAQKFQGRVTMTVDTSTSTVYMELSSLRSEDTAVYYCARGNYGVDYAMDYWGQGTLVTVSS
VL: DIQMTQSPSSLSASVGDRVTITCRASENIYGALNWYQQKPGKAPKLLIYGATNLADGVPSRFSGSGSGRQYSLTISSLQPEDFATYYCQNVLITPYTFGGGTKLEIKR
notes: expressed in HEK293 cells; also called HC2/LC3; HC2LC3
no binding (tested: 10 ug/ml): all assays above
